Experimental data taken from publication PMC13787487 (2026).

Columns and labels:
Assay in all cases: FP
SHANK3 PDZ = target: T1, SHANK3 PDZ (UniProt Q9BYB0)
T1 chain: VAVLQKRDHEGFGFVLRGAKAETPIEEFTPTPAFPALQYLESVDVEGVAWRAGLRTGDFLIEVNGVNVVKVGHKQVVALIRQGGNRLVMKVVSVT

SHANK2 PDZ = target: T2, SHANK2 PDZ (UniProt Q9UPX8)
T2 chain: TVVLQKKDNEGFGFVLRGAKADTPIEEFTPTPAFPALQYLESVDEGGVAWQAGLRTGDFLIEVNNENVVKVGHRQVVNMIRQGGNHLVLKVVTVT

SHANK1 PDZ = target: T3, SHANK1 PDZ (UniProt Q9Y566)
T3 chain: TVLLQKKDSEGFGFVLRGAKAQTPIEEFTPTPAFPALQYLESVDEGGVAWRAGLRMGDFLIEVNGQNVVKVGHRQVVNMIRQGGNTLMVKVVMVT

PSD-95 PDZ2 = target: T4, PSD-95 PDZ2 (UniProt P78352)
T4 chain: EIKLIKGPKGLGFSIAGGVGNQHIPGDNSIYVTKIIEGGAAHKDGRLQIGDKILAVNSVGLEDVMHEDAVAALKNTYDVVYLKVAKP

PSD-95 PDZ3 = target: T5, PSD-95 PDZ3 (UniProt P78352)
T5 chain: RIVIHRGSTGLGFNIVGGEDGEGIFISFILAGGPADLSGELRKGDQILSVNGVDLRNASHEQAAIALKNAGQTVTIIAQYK

- Kd (SHANK3 PDZ): 8.6 µM
- Kd (SHANK2 PDZ): 5.2 µM
- Kd (SHANK1 PDZ): 7.6 µM
- Kd (PSD-95 PDZ2): 31.3 µM
- Kd (PSD-95 PDZ3): 40.7 µM
Binder: YNRTNRSRMPNLNDLKETAL [CDKL5-1 941-960]
